Molecular target: T1, αvβ3 on β3-CHO cells (UniProt A0A9J7JSN3+P05106)
T1 construct: expressed in transfected cells; host or cells: CHO
T1 sequence (P05106 27-788): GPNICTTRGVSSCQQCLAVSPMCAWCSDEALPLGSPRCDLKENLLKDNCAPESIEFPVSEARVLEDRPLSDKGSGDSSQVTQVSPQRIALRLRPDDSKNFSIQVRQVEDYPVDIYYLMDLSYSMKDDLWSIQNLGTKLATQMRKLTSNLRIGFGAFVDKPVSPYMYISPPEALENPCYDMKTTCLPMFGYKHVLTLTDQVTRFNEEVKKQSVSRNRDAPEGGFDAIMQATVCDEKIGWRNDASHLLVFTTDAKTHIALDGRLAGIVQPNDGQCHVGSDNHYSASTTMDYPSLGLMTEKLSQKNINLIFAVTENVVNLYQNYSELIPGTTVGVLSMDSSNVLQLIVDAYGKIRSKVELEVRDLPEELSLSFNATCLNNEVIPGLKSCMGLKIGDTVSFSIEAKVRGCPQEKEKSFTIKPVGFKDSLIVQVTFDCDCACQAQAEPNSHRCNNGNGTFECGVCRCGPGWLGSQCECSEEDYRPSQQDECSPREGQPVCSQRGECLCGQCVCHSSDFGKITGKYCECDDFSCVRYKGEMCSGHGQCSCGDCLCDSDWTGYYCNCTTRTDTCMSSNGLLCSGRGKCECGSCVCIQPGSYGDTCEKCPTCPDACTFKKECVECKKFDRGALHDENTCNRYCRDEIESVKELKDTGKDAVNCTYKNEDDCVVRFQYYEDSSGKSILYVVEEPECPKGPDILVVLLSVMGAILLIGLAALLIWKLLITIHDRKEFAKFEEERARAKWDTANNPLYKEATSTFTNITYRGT
T1 sequence (A0A9J7JSN3 31-1043): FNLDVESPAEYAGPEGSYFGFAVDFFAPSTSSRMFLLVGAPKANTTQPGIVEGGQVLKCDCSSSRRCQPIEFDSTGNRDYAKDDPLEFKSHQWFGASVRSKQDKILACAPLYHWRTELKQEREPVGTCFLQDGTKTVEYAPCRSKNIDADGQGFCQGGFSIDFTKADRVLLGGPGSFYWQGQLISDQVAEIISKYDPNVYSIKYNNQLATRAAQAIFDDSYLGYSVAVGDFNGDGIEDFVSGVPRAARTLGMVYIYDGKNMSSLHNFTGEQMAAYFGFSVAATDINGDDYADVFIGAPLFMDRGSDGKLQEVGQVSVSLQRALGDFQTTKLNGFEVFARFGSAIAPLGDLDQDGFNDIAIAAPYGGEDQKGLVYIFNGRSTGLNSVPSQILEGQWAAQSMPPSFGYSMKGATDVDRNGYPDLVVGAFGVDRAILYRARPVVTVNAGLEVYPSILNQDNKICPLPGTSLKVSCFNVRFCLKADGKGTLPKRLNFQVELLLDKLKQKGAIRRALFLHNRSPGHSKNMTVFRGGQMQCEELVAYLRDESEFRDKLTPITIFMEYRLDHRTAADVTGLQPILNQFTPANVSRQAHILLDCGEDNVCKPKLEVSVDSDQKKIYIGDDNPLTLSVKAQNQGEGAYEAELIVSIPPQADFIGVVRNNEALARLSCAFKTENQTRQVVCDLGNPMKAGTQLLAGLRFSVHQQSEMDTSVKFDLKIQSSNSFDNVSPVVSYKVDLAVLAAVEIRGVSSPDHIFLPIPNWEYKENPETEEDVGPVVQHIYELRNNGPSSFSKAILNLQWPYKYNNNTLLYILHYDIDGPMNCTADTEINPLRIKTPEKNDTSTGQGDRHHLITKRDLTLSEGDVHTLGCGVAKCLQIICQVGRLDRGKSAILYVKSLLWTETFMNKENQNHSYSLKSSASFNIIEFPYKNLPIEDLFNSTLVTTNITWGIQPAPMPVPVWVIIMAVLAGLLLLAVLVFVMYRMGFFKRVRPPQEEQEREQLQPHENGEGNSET
Assay: Binding of FITC-labeled sPLA2-IIA to αvβ3 on the cell surface (flow cytometry)
Type: cell-based, human
Conditions: 10 μg/ml, 10 mM Mg2+, room temperature, 30 min
Description: FIG. 1. sPLA2-IIA binding to integrin αvβ3. a) Cell adhesion to sPLA2-IIA in an αvβ3- and proteoglycans-dependent manner. Wells of a 96-well microtiter plate were coated with sPLA2-IIA at indicated coating concentrations. Remaining protein-binding sites were blocked with BSA. CHO cells expressing recombinant αvβ3 (β3-CHO), mock-transfected CHO cells, proteoglycans-deficient CHO cell variant (pgs745), expressing recombinant αvβ3 (β3-745), and mock-transfected pgs745 cells (10^5 cells per well in 100 μl Tyrodes-HEPES with 1 mM MgCl2) were added to the wells. After incubating for 1 h at 37° C., unbound cells were removed by gentle rinsing and bound cells were quantified using endogenous phosphatase activity (Prater, C. A. et al., J. Cell Biol., 112:1031-1040 (1991)). Data is shown as means+/−SEM of triplicate experiments. b) Effect of anti-(33 mAb 7E3 on adhesion of β3-CHO cells to immobilized sPLA2-IIA. […] Bound FITC (FL1) and PE (FL2) were quantified in flow cytometry. […] Bound αvβ3 was detected using peroxidase-conjugated anti-6His antibody. Bound peroxidase activity was measured. […]
Binding of FITC-labeled sPLA2-IIA to integrins on the cell surface sPLA2-IIA was labeled with FITC using Fluorescein labeling kit (Pierce) according to the manufacturer's instructions. […] Bound FITC (FL1) and PE (FL2) were quantified in flow cytometry.

binding to cells expressing high-level αvβ3 vs little αvβ3: much higher levels
B1: FITC-sPLA2-IIA: sPLA2-IIA labeled with FITC using Fluorescein labeling kit (conjugate)
chain: NLVNFHRMIKLTTGKEAALSYGFYGCHCGVGGRGSPKDATDRCCVTHDCCYKRLEKRGCGTKFLSYKFSNSGSRITCAKQDSCRSQLCECDKAAATCFARNKTTYNKKYQYYSNKHCRGSTPRC
modifications: left off: small tags and cut ends
notes: sPLA2-IIA labeled with FITC using Fluorescein labeling kit

From patent publication US20090092595A1, “Suppression of sPLA2-integrin binding for treating an inflammatory condition” (REGENTS OF THE UNIVERSITY OF CALIFORNIA, priority 2007, published 2009)
